PMC2978106, “The Arabidopsis ABA-Activated Kinase OST1 Phosphorylates the bZIP Transcription Factor ABF3 and Creates a 14-3-3 Binding Site Involved in Its Turnover” (PLoS ONE, 2010)
Where no end group is shown, it is not given here. [ ]: non-standard residue; d: D form. pT = C[C@@H](OP(=O)(O)O)[C@H](N)C(=O)O

Biological target: T1, Arabidopsis 14-3-3 protein GF14phi fused to GST (Arabidopsis, UniProt P46077 1-267)
T1 construct: 14-3-3 protein GF14phi of Arabidopsis; also called GST-14-3-3; source: E. coli, loaded on glutathione beads
T1 sequence (looked up): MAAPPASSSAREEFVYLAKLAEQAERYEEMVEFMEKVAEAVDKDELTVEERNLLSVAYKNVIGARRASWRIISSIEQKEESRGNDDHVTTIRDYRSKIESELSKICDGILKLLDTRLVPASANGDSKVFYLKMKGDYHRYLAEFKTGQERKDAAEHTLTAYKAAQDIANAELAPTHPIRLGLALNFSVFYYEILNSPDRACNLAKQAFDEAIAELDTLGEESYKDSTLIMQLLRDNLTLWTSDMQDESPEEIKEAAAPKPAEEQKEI
Experiment: pull-down; GST-GF14phi (0.4 nmole) on glutathione beads; 15 µM peptide phosphorylated by OST1 with ATP^γ32; 30 min at 25°C; 20 mM Tris-HCl pH 7.5, 150 mM NaCl, 1 mM CaCl2, 1 mM DTT, 0.05% Tween20; bound peptide counted by Cerenkov counting
Conditions: both partners purified

- binding result: binds
B1: ABF3T451 peptide phosphorylated by OST1 (peptide)
peptide: KKRQCLRRTL[pT]GPW
modifications: also: phosphothreonine at T451 (T9 or T11 of chain, not fixed by letters)
notes: residues printed before L446 of the ABF3T451 peptide; C-terminal end of ABF3 (C4 domain, LXRXXTXP motif with T451), Arabidopsis thaliana, At4g34000; It holds two threonines (T449, T451); also called pABF3T451; phospho-ABF3T451
